In article PMC11467351:

Biological target: ButCD complex of B. fragilis GS077 (B. fragilis GS077 (endogenous))
Assay: cryo-EM structure

ButCD complex of B. fragilis GS077 gave a stoichiometry N of 2.
